According to patent publication US20230295310A1 (ABCELLERA BIOLOGICS, published 2023):
Residue numbers refer to the chain shown, from its start.

B1: mAb 96 (antibody, V domains shown)
VH: QAHLVESGGGVVQPGRSLRLSCSASGFTFSGYGMHWVRQAPGKGLEWVSLIYFDGRNKYYADSVKGRFTISRDNSKNTLYLQMNSLRAEDTAVYYCARGGGYNWFDPWGQGTLVTVSS
VL: DIQMTQSPSSLSASVGDRVTITCRASQSINNYLSWYQQKPGKAPKLLIYLASNLQSGVPSRFSGNGSGTDFTLTISSLQPEDFATYYCQLSYRSPFTFGPGTKVDVK
notes: VH and VL only
B2: mAb 98 (antibody, V domains shown)
VH: B1 VH with A2V, G10D, S49A
VL: B1 VL with S34N, N53S, N65S, F83L, R93S
notes: VH and VL only
B3: mAb 223 (antibody, V domains shown)
VH: QVQLVESGGGVVQPGRSLRLSCAASGFTFSGYGMHWVRQAPGKGLEWVAIIYYNGNNRKYADSVKGRFTISRDNSKNMVSLQMNSLRVEDTAIYYCTRGDGYNWFVTWGQGTLVTVSS
VL: EIVMTQSPATLSVSPGEGATLSCRASQSVSSNLAWYHQKPGQAPRLLIYGASTRATGIPVRFSGSGSGTEFTLTISSLQSDDFAVYFCQQYNNWPLTFGGGTKVEIK
notes: VH/VL only
B4: mAb 49 (antibody, V domains shown)
VH: EVQLVESGGGLVPPGGSLRLSCVASGFTLRSYTMNWVRQAPGQGLEWISYISSTSRTIYYSDSVKGRFTISRDNAKNSLYLQVNSLRDEDTALYYCAREDYYDSSGFDCWGQGTLVTVSS
VL: AIRMTQSPSSFSASTGDRVTITCRASQGIFNYLAWYQQKPGKAPKLLIYSTSTLQSGVPSRFSGSGSGTDFTLTIRGLQSEDLATYYCQQYYSFPRTFGQGTKVDIK
notes: VH and VL only
B5: mAb 288 (antibody, V domains shown)
VH: EVQLLESGGNLGQPGGSLRLSCAVSGFTFSSYTMSWVRQAPGKGLEWVSAISGSGGRTYYADSVKGRFTISRDNSKNTLYLQMKSLRAEDTAVYYCAKKFSYYYYYMDVWGKGTTVTVSS
VL: SYELTQPLSVSVALGQTARITCGGNNIGSKDVHWYQQKPGQAPVLVIYRDSNRPSGIPERFSGSNSGNTATLTISSAQAGDEADYYCQVWDSNTAVFGGGTQLTAL
notes: VH/VL only
B6: mAb 111 (antibody, V domains shown)
VH: EVQLVESGGVLVKTGGSLRLSCVASGFSFKKAWMNWVRQAPGKGLEWVGRIKRNSDGGAADYAAPVKDRFTLSRDDSKNTLYLQMNSLKTEDTAVYYCTTLDSSSWYVGYYYMDVWGKGTTVTVSS
VL: DIHMTQSPSSVSASLGDRVTFTCRASQNINNWLAWYQQKPGKAPKLLIYTASSLQSGVPSRFSGSGSGTDFTLTISSLQPDDFATYYCQQAHSLPITFGQGTRLGIK
notes: VH and VL only
B7: mAb 129 (antibody, V domains shown)
VH: B6 VH with V10D, S55T, A60T
VL: B6 VL with N28D, K45R, K107E
notes: VH and VL only
B8: mAb 127 (antibody, V domains shown)
VH: B6 VH with V10G, L18H, A59T, A60T, D68G, T71I
VL: DIQMTQSPSSVSASVGDRVTITCRASQDINNWLAWYQQKPGKAPKILIYTASNLQSGVPSRFSGSGSGTDFTLTISTLQPEDFATYFCQQAHGLPITFGQGTRLEIK
notes: VH and VL only
B9: mAb 123 (antibody, V domains shown)
VH: DVQLVESGGGTVKTGGSLRLSCVASGFSFKKAWMNWVRQAPGKGLEWVGRIKKNSDDGTADYAAPVKGRFTISRDDSKRTLFLQMNSLQTEDTAVYYCTTLDSSSWFVGYYYMDVWGKGTTVTVSS
VL: B8 VL with T20I, I46L, N53S, G68V, T69S, S76D, T77S, F87Y, G93S
notes: VH and VL only
B10: mAb 106 (antibody, V domains shown)
VH: QVQLVESGGGVVQPGRSLRLSCAASGFTFRSYGMHWVRQAPGKGLEWVAIIWYNGNKKDYVDSVKGRFTISRDNSKNTLYLQMNSLRAEDTALYYCARGPGYNWFDPWGQGTLVTVSS
VL: DIQMTQSPPSLSASVGDRVTITCRASQRISSYLNWYQQKPGKAPKLLIYAASSLQSGVPSRFSGSGSGTDFTLTISSLQPEDFATYYCQQSDSFPLTFGGGTKVEII
notes: VH and VL only
B11: mAb 227 (antibody, V domains shown)
VH: B10 VH with V2E, T28I, R30S, N56K, K58R, V61A, L93V, P100L
VL: EIVLTQSPDFQSVTPKEKVTITCRASQSIGSSLHWYQQKPDQSPKLLIKYASQSFSGVPSRFSGSGSGTDFTLTINSLEAEDAATYYCHQSSSLPYTFGQGTKLEIK
notes: VH/VL only
B12: mAb 211 (antibody, V domains shown)
VH: QVQLVESGGGVVQPGRSLRLSCAASGFTFSGYGMHWVRQAPGKGLEWVAIIYYNGKREYYADSVKGRFTISRDNSKNTLYLQMNSLRAEDTAVYYCTRGEGYNWFDPWGQGTLVTVSS
VL: B3 VL with G18R, H37Q, V60A, D81E, F87Y, Q89K, Q90H
notes: VH/VL only
B13: mAb 246 (antibody, V domains shown)
VH: B10 VH with V2E, N54D, N56K, K57N, D59Y, V61A, L93V, P100L
VL: B11 VL with A51G
notes: VH/VL only
B14: mAb 110 (antibody, V domains shown)
VH: B10 VH with T78M
VL: B10 VL with K39R, S91T
notes: VH and VL only
B15: mAb 200 (antibody, V domains shown)
VH: B12 VH with V5A, R57K, Y95F
VL: B3 VL with G18R, H37Q, V60A, D81E, F87Y, Q89K, N92K
notes: VH/VL only
B16: mAb 207 (antibody, V domains shown)
VH: B12 VH with R57K, K76R, Y80F, V93I
VL: B3 VL with G18R, H37Q, V60A, Q79L, D81E, F87Y, Q89K
notes: VH/VL only
B17: mAb 241 (antibody, V domains shown)
VH: B10 VH with V2E, T28I, R30S, N56K, K58R, V61A, L93V, P100L
VL: B11 VL with E1A, S28N, S92G
notes: VH/VL only
B18: mAb 190 (antibody, V domains shown)
VH: B12 VH with R57K
VL: B3 VL with G18R, H37Q, V60A, D81E, F87Y, Q89K
notes: VH/VL only
B19: mAb 232 (antibody, V domains shown)
VH: B10 VH with V2E, R30S, N56R, V61A, L93V, P100L
VL: B11 VL with K16M, T22A
notes: VH/VL only
B20: mAb 234 (antibody, V domains shown)
VH: B10 VH with V2E, T28I, R30S, N56K, K58R, V61A, A88V, L93V, P100L, P107S
VL: B11 VL
notes: VH/VL only
B21: mAb 231 (antibody, V domains shown)
VH: B12 VH with V2E, G31S, R57K, E58K, Y59D, T97V, E100L
VL: B11 VL with S93N
notes: VH/VL only
B22: mAb 208 (antibody, V domains shown)
VH: B10 VH with V2E, R30S, N56K, V61A, N77S, L93V, P100L
VL: B11 VL with K16M, T22A, S28N, L94F, Y96N
notes: VH/VL only
B23: mAb 202 (antibody, V domains shown)
VH: B12 VH with R57K, Y95F
VL: B3 VL with G18R, H37Q, V60A, D81E, F87Y, Q89K, N92K
notes: VH/VL only
B24: mAb 244 (antibody, V domains shown)
VH: B10 VH with V2E, N54D, N56K, K57N, D59Y, V61A, A88V, L93V, P100L, S117T
VL: B11 VL with S54T, A80V, Y96N
notes: VH/VL only
B25: mAb 239 (antibody, V domains shown)
VH: B12 VH with V2E, Q3K, A23V, Y32F, N54D, R57N, E58K, T97V, E100P
VL: B11 VL
notes: VH/VL only
B26: mAb 247 (antibody, V domains shown)
VH: B10 VH with V2E, T28I, R30S, N56K, K58R, V61A, L93V, P100L
VL: B11 VL with E17D, S93T
notes: VH/VL only

Key:
[1] = molecular target: T1, human CD3e/g (human, UniProt P07766 23-126; P09693 23-116); assay: SPR (Carterra LSA), mAb on chip
T1 construct: Bought soluble protein; also called hCD3e/g; human CD3e/g (Acro CDD-C52W4)
How it was run: (§1)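 Purified mAbs amine-coupled (EDC/S-NHS) at 10 μg/mL in 10 mM NaOAc pH 4.25 onto an HC-30M chip, with benchmark and negative-control mAbs; analyte flowed over the array. Double-referenced sensorgrams fitted globally to a 1:1 Langmuir model for ka, kd and KD.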

[2] = molecular target: T2, human CD3e/d (human, UniProt P07766 23-126; P04234 22-105); assay: SPR (Carterra LSA), mAb on chip
T2 construct: Bought soluble protein; also called hCD3e/d; human CD3/ed (Sino CT038-H2508H)
How it was run: as §1

[3] = molecular target: T3, cynomolgus monkey CD3 expressed on cyno primary T cells (cynomolgus monkey, UniProt Q95LI5 22-198; Q95LI8 22-171; Q95LI7 23-181); assay: flow cytometry, cyno primary T cells
T3 construct: whole, on cells; CD3 complex on purified cynomolgus monkey CD3 pan T cells; also called cyno CD3
Protocol: Purified antibodies were confirmed to bind CD3 expressed on cells using the CytoFLEX S or LX flow cytometers (Beckman Coulter). Antibodies were diluted to 25 nM in FACS buffer (PBS+2% FBS) and were incubated with CD3-expressing cells for 30 minutes at 4° C. […] The median fluorescence intensity of the binding signal for each antibody was normalized to the isotype control to obtain a fold over isotype value. An antibody with a fold over isotype (FOI) of ≥10 was considered to be positive for binding.

T3 sequence (Q95LI5 22-198, chain 1 of 3): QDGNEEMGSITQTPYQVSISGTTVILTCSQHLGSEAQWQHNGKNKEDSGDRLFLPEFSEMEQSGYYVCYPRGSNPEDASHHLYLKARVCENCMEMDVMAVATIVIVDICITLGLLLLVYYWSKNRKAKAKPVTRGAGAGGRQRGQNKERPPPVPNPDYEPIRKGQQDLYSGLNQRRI
T3 sequence (Q95LI8 22-171, chain 2 of 3): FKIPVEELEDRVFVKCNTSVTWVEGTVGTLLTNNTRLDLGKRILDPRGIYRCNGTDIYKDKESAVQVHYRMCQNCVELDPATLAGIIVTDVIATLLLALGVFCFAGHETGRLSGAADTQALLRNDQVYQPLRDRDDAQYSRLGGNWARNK
T3 sequence (Q95LI7 23-181, chain 3 of 3): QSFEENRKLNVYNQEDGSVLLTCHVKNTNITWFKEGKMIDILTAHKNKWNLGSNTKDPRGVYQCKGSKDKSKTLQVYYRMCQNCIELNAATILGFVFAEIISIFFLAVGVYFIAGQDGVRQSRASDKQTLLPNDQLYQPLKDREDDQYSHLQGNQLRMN
T2 sequence (P07766 23-126, chain 1 of 2): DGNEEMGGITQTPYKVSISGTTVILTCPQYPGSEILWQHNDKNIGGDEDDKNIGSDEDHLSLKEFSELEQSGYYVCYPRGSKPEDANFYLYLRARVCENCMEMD
T2 sequence (P04234 22-105, chain 2 of 2): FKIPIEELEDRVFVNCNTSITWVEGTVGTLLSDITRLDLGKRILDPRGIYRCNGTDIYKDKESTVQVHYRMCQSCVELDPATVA
T1 sequence (P07766 23-126, chain 1 of 2): as the sequence (P07766 23-126, chain 1 of 2) above
T1 sequence (P09693 23-116, chain 2 of 2): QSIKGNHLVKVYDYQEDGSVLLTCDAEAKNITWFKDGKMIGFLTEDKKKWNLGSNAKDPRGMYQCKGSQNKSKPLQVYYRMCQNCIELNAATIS

Binder	Kd [1] [nM]	Kd [2] [nM]	binding result [3]
B1	11.9	7.73	–
B2	11.2	9.71	–
B3	–	–	no binding (tested: FOI <10 (FOI >=10 = positive); 25 nM)
B4	3.64	10.8	–
B5	–	–	no binding (tested: FOI <10 (FOI >=10 = positive); 25 nM)
B6	7.44	19.6	–
B7	6.62	26.4	–
B8	15.4	65	–
B9	16.6	56.1	–
B10	10.6	17.1	–
B11	–	–	no binding (tested: FOI <10 (FOI >=10 = positive); 25 nM)
B12	–	–	no binding (tested: FOI <10 (FOI >=10 = positive); 25 nM)
B13	–	–	no binding (tested: FOI <10 (FOI >=10 = positive); 25 nM)
B14	8.97	18.4	–
B15	–	–	no binding (tested: FOI <10 (FOI >=10 = positive); 25 nM)
B16	–	–	no binding (tested: FOI <10 (FOI >=10 = positive); 25 nM)
B17	–	–	no binding (tested: FOI <10 (FOI >=10 = positive); 25 nM)
B18	–	–	no binding (tested: FOI <10 (FOI >=10 = positive); 25 nM)
B19	–	–	no binding (tested: FOI <10 (FOI >=10 = positive); 25 nM)
B20	–	–	no binding (tested: FOI <10 (FOI >=10 = positive); 25 nM)
B21	–	–	no binding (tested: FOI <10 (FOI >=10 = positive); 25 nM)
B22	–	–	no binding (tested: FOI <10 (FOI >=10 = positive); 25 nM)
B23	–	–	no binding (tested: FOI <10 (FOI >=10 = positive); 25 nM)
B24	–	–	no binding (tested: FOI <10 (FOI >=10 = positive); 25 nM)
B25	–	–	no binding (tested: FOI <10 (FOI >=10 = positive); 25 nM)
B26	–	–	no binding (tested: FOI <10 (FOI >=10 = positive); 25 nM)
